Assay results as given in publication PMC8358037 (Communications Biology, 2021).
Positions count from the first letter of the chain named.

B1: anti-CROP gastrobody G9 (His6-Thrombin site-SpyTag003-gastrobody) (designed binder)
chain: DFVLDNEGNPLENGGTYYILSHPDLFGGIRAAPTGNERCPLTVVQSLYLFDKGIGTIISSPYRIRFIAEGHPLSLKFDSFAVIMLCVGIPTEWSVVEDLPEGPAVKIGENKDAMDGWFRLERVSDDEFNNYKLVFCPQQAEDDKCGDIGISIDHDDGTRRLVVSKNKPLVVQFQKLDKESL
B2: anti-CROP gastrobody T42 (His6-Thrombin site-SpyTag003-gastrobody) (designed binder)
chain: B1 chain with H22V, D24H, L25Q, L47R, Y48N, L49K, F50W
B3: anti-CROP gastrobody G22 (His6-Thrombin site-SpyTag003-gastrobody) (designed binder)
chain: B1 chain with H22L, P23Q, D24N, L25R, L47H, Y48D, L49F, F50M

These binders were tested against combined repetitive oligopeptide domain of C. difficile toxin A (AviTag-His6-CROP) (Clostridium difficile, UniProt P16154 2304-2710) (assay: SPR). Conditions: both partners purified.
B1 showed a Kd of 4.1 µM.
B2 was tested, and the Kd was 6.2 µM.
B3 showed a Kd of ~50 µM.
